Experiments:
[1] = biological target: T1, CXCR4 (Homo sapiens, UniProt P61073, L41A); test: Calcium mobilization assay in transfected HEK 293T cells; type: cell-based; conditions: peptide-induced, point mutation, FIG. 15A
T1 construct: WT CXCR4 with an N-terminal 3×HA-tag, Gβ3-WT, and GNA15 sub-cloned into pcDNA3.1+ were obtained from the cDNA Resource Center; host or cells: HEK 293T
Method: (§1) 40,000 HEK 293T cells were transiently transfected with 50 ng HA3-CXCR4, 10 ng GNA15 in pcDNA3.1+. To equalize receptor surface expression, 75 ng of HA3-CXCR4 for the Cdes2 Design variant. Cells were first seeded in 100 uL DMEM (Gibco, ref: 41965-039) 10% FBS in a black-walled, clear-bottom 96-well plate coated with poly-lysine (Sigma, P6407-5MG). Directly after cell loading, 50 uL of the mixture containing 0.5 μL Lipofectamine 2000 (Invitrogen, ref: 11668-019) and the DNA was added on top of the cells. The cells were then left to incubate at 37° C., 5% CO2, 95% relative humidity for 20 h, after which, media was refreshed with 150 uL DMEM+10% FBS. Cells were assayed 48 h post-transfection. Cells were washed with 200 μL FLIPR6 buffer (HBSS+20 mM HEPES, pH 7.4), then incubated at 37° C., 5% CO2, 95% relative humidity for 2 h in 200 μL dye buffer according to manufacturer's protocol. Just before the assay, 5× concentrated peptide solutions were prepared in FLIPR6 buffer in a V-bottom 96-well plate. After incubation, peptide solutions were added at a rate of 16 μL/s after 30 s and fluorescence changes were monitored for 90 s after addition using microplate reader FlexStation3 (Molecular Devices). The maximum response after correction by the mock-transfected condition was averaged from three replicates. […]

[2] = test system: CXCR4; test: Gαi dissociation BRET (Gi activation) in transfected HEK 293T cells; type: cell-based, human; conditions: for enhanced potency in G-coupling (Gi): designed receptor vs WT CXCR4 scaffold, against WT CXCL12 peptide
Method: (§2) 40,000 HEK 293T cells were transiently transfected with HA3-CXCR4, Gαi1-91-Rluc8, Gβ3-WT and Gγ9-GFP2 in pcDNA3.1+ at a ratio of 10:1:10:5 respectively. Cells were first seeded in 100 μL DMEM 10% FBS in a poly-lysine coated, white-walled, white-bottom 96-well plate. Directly after cell loading, 50 μL of the mixture containing Lipofectamine 2000 and the DNA was added on top of the cells. The cells were then left to incubate at 37° C., 5% CO2, 95% relative humidity for 20 h, after which, 150 μL media was refreshed. Cells were assayed 48 h post-transfection. Cells were washed with 150 μL PBS, then 40 μL BRET buffer (HBSS, 0.2% Glucose) was added to each well. Coelenterazine 400a was first added at a final concentration of 2.5 μM and BRET ratios were measured once using Mithras^2 LB 943 plate reader. After the first measurement, […] agonist solution was added to each well and BRET ratios were measured for another 30 min using Mithras^2 LB 943 plate reader. Mock-transfected controls were subtracted from the data. Maximum values were then plotted against selected concentrations and fitted to a sigmoidal curve. (n=3, SD plotted)

[3] = test system: CXCR4; test: Calcium mobilization assay in transfected HEK 293T cells; type: cell-based, human; conditions: designed receptor vs WT CXCR4, CXCL12-derived peptide, HEK cells
Method: as §1

[4] = biological target: T2, CXCR4 (Homo sapiens, UniProt P61073, N37A/S285M/Y45F); test: Gαi dissociation BRET (Gi activation) in transfected HEK 293T cells; type: cell-based; conditions: HEK cells; cell based assays reporting Gi activation and Ca2+ mobilization
T2 construct: WT CXCR4 with an N-terminal 3×HA-tag, Gβ3-WT, and GNA15 sub-cloned into pcDNA3.1+ were obtained from the cDNA Resource Center; host or cells: HEK 293T
Method: as §2

B1: L41A CXCR4: CXCR4 point mutant L41A (protein)
chain: MEGISIYTSDNYTEEMGSGDYDSMKEPCFREENANFNKIFAPTIYSIIFLTGIVGNGLVILVMGYQKKLRSMTDKYRLHLSVADLLFVITLPFWAVDAVANWYFGNFLCKAVHVIYTVNLYSSVLILAFISLDRYLAIVHATNSQRPRKLLAEKVVYVGVWIPALLLTIPDFIFANVSEADDRYICDRFYPNDLWVVVFQFQHIMVGLILPGIVILSCYCIIISKLSHSKGHQKRKALKTTVILILAFFACWLPYYIGISIDSFILLEIIKQGCEFENTVHKWISITEALAFFHCCLNPILYAFLGAKFKTSAQHALTSVSRGSSLKILSKGKRGGHSSVSTESESSSFHSS
- calcium release [1]: Enhanced

B2: CLdes: CXCR4 variant combining the H113N mutation with the Cdes2 design (protein)
chain: MEGISIYTSDNYTEEMGSGDYDSMKEPCFREENANFAKIFLPTIFSIIFLTGIVGNGLVILVMGYQKKLRSMTDKYRLHLSVADLLFVITLPFWAVDAVANWYFGNFLCKAVNVIYTVNLYSSVLILAFISLDRYLAIVHATNSQRPRKLLAEKVVYVGVWIPALLLTIPDFIFANVFEAQDRYVCDRFYPNDLWVVVFQFQHIMVGLILPGIVILSCYCIIISKLSHSKGHQKRKALKTTVILILAFFACWLPYYIGISIDSFILLEIIKQGCEFENTVHKWIMITEALAFFHCCLNPILYAFLGAKFKTSAQHALTSVSRGSSLKILSKGKRGGHSSVSTESESSSFHSS
modifications: CLdes
notes: CXCR4 variant combining the H113N mutation with the Cdes2 design
- enhanced potency in G-coupling (Gi) [2]: more than 9 fold over WT

B3: Ldes: CXCR4 variant assembled from activating point mutations on TM1, TM3 and ECL2 of the point mutant library (protein)
chain: MEGISIYTSDNYTEEMGSGDYDSMKEPCFREENANFNKIFIPTIYSIIFLTGIVGNGLVILVMGYQKKLRSMTDKYRLHLSVADLLFVITLPFWAVDAVANWYFGNFLCKAVNVIYTVNLYSSVLILAFISLDRYLAIVHATNSQRPRKLLAEKVVYVGVWIPALLLTIPDFIFANVAEADDRYICDRFYPNDLWVVVFQFQHIMVGLILPGIVILSCYCIIISKLSHSKGHQKRKALKTTVILILAFFACWLPYYIGISIDSFILLEIIKQGCEFENTVHKWISITEALAFFHCCLNPILYAFLGAKFKTSAQHALTSVSRGSSLKILSKGKRGGHSSVSTESESSSFHSS
modifications: Ldes
- enhanced potency in G-coupling (Gi) [2]: ~11 fold over WT
- higher Gi efficacy ([2]; designed receptor vs starting CXCR4 WT scaffold, WT CXCL12 peptide): 120%

B4: Cdes2: second-generation combinatorial design CXCR4 variant combining the 2 designed binding hotspot motifs (protein)
chain: MEGISIYTSDNYTEEMGSGDYDSMKEPCFREENANFAKIFLPTIFSIIFLTGIVGNGLVILVMGYQKKLRSMTDKYRLHLSVADLLFVITLPFWAVDAVANWYFGNFLCKAVHVIYTVNLYSSVLILAFISLDRYLAIVHATNSQRPRKLLAEKVVYVGVWIPALLLTIPDFIFANVFEAQDRYVCDRFYPNDLWVVVFQFQHIMVGLILPGIVILSCYCIIISKLSHSKGHQKRKALKTTVILILAFFACWLPYYIGISIDSFILLEIIKQGCEFENTVHKWIMITEALAFFHCCLNPILYAFLGAKFKTSAQHALTSVSRGSSLKILSKGKRGGHSSVSTESESSSFHSS
modifications: Cdes2
- enhanced potency in calcium mobilization [3]: 3.1 fold over WT
- enhanced potency in G-coupling (Gi) [2]: 3.2 fold over WT

B5: Cdes1: first-generation combinatorial design CXCR4 receptor variant with binding hotspot motif at TM1/7 interface (protein)
chain: MEGISIYTSDNYTEEMGSGDYDSMKEPCFREENANFAKIFLPTIFSIIFLTGIVGNGLVILVMGYQKKLRSMTDKYRLHLSVADLLFVITLPFWAVDAVANWYFGNFLCKAVHVIYTVNLYSSVLILAFISLDRYLAIVHATNSQRPRKLLAEKVVYVGVWIPALLLTIPDFIFANVSEADDRYICDRFYPNDLWVVVFQFQHIMVGLILPGIVILSCYCIIISKLSHSKGHQKRKALKTTVILILAFFACWLPYYIGISIDSFILLEIIKQGCEFENTVHKWIMITEALAFFHCCLNPILYAFLGAKFKTSAQHALTSVSRGSSLKILSKGKRGGHSSVSTESESSSFHSS
modifications: Cdes1
- sensitivity to CXCL12 [4]: enhanced sensitivity

Source: patent publication US20250210128A1, “COMPUTER-IMPLEMENTED DESIGN OF PEPTIDE:RECEPTOR SIGNALING COMPLEXES FOR ENHANCED CHEMOTAXIS” (Ecole Polytechnique Federale de Lausanne (EPFL), priority 2022, published 2025)
